Measured values reported in article PMC4995097, “Talin-KANK1 interaction controls the recruitment of cortical microtubule stabilizing complexes to focal adhesions” (eLife, 2016).

B1: BODIPY-labeled KANK1(30–60)C peptide (peptide)
peptide: PYFVETPYGFQLDLDFVKYVDDIQKGNTIKKC
modifications: BODIPY TMR dye coupled via the carboxy terminal cysteine
notes: KANK1, human, residues 30-60; added C-terminal cysteine; also called KANK1(30–60) peptide; source: synthetic peptide (Biomatik), dye-coupled, gel filtered
B2: BODIPY-labeled KANK2(31–61)C peptide (peptide)
peptide: PYSVETPYGYRLDLDFLKYVDDIEKGHTLRRC
modifications: BODIPY TMR dye coupled via the carboxy terminal cysteine
notes: KANK2, residues 31-61; added C-terminal cysteine; source: synthetic peptide (Biomatik), dye-coupled, gel filtered

Key:
[1] = molecular target: T1, talin1 R7-R8 (murine talin1 residues 1357–1653) (mouse, UniProt P26039 1357-1653); test: fluorescence polarisation; fixed 0.5 μM BODIPY-labelled KANK peptide, increasing talin R7-R8, PBS, 100 μl, room temperature, triplicate; one site total and non-specific binding model; conditions: both partners purified
T1 construct: talin1, mouse, residues 1357-1653 (R7-R8); 15N-labelled for NMR, unlabelled for fluorescence polarisation; Vector pet151-TOPO; also called talin R7-R8; wild type R7-R8
T1 sequence (P26039 1357-1653): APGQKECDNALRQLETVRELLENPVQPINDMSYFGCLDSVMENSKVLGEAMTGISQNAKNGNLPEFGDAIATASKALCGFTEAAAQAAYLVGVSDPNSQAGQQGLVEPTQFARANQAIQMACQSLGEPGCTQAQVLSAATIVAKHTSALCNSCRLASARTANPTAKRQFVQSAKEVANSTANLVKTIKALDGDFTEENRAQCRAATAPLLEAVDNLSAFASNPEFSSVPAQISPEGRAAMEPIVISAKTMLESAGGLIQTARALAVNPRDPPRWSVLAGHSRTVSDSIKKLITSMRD

talin1 R7-R8 S1641E = molecular target: T2, talin1 R7-R8 S1641E (mouse, UniProt P26039 1357-1653, S1641E); test: as above; conditions: both partners purified
T2 construct: talin1, mouse, R7-R8 (limits as the wild type: 1357-1653) with S1641E; also called S1641E mutant; source: gene synthesized by GeneArt
T2 sequence (P26039 1357-1653 S1641E): as the sequence (P26039 1357-1653) above, with S285E counted along it

Row | Binder | binding result [1] | binding result (talin1 R7-R8 S1641E)
1 | B1 | binds | binds
2 | B2 | binds | 
